Data: publication PMC9169858 (2022)
“And” between values parts separate entries of the source, which are not always exact repeats. Equal entries are not always repeated.

Biological target: SARS-CoV-2 main protease (M^pro), pGEX4T-1 construct, GST removed by thrombin (SARS-CoV-2, UniProt P0DTD1)
Experiment: BLI

B1: NB2E3 (VHH)
VHH: QVQLQESGGGSVQAGGSLRLSCAVSGFIATSCALGWFRQAPGKEREGIATITTDGTTYYVDSVKGRFTISQDNAKNTVALQMNSLKPEDTAMYYCKLCCSGQYCAWGQGTQVTVSS
  Kd: 2.7 nM

B2: NB1D10 (VHH)
VHH: QVQLQESGGGSVQAGGSLRLSCAVSGYSYCNYDLGWFRQAPGKEREGIATIDSDGNTYYVDSVKGRFTISQDNAKNTVALQMNSLKPEDTAMYYCKVGSIASSVPEVSCPPSAPFGYWGQGTQVTVSS
  Kd: 0.43 nM and 0.431 nM
